This is an account of results in patent publication US20230174624A1, “FERRITIN VARIANTS WITH INCREASED STABILITY, COMPLEXATION ABILITY AND TRANSFERRIN RECEPTOR AFFINITY” (CELLIS AG, priority 2020, published 2023).

Data set [1] in a line: Native gel after storage in a freezer (-80 degrees Celsius) and thawing. The following applies: ferritin-dox. It is filed as physicochemical.
A short description of data set [2]: Native PAGE gel after doxorubicin encapsulation and purification. In kind it is physicochemical. The following applies: ferritin-dox after encapsulation, concentrated on 10 or 100 kDa Amicon. From the text:
Native PAGE gel has been performed in order to check the size of the protein after encapsulation and purification.

For data set [3], the system named is breast and ovarian cancer cell lines: MDA-MB 231, Skov3 and 4T1. As to the kind of experiment: Tumour cell viability after co-culture with macrophages carrying doxorubicin packed ferritin. The following applies: 72 h co-culture with macrophages, ferritin cages filled with doxorubicin 1 mg/ml. In kind it is cell-based. Here is the method: FIG. 7: Graphs of tumour cell viability after 72 h co-culture with macrophages. The concentration of ferritin cages filled with doxorubicin was the same for each variant of ferritin and was equal to 1 mg/ml.
In vitro experiments have shown that ferritin mutants reveal better cytotoxicity against tumor cells. The doxorubicin packed proteins were inserted into macrophages and then co-cultured with breast and ovarian cancer cell lines: MDA-MB 231, Skov3 and 4T1. The number of viable cells after co-culture was the lowest for the Q11E-Q15E mutant (FIG. 7).

For another data set, the system named is siRNA. The data set is described as follows: siRNA association with ferritin (gel). In kind it is binding. On the procedure: 1 ml reaction containing 2 mg Ft and 4 ug siRNA in DPBS, pH lowered to values as indicated (2.5, 3.2, 4.4, 5.6 and 6.8, respectively). Samples were incubated 15 min in RT, then NaOH was added to adjust pH to neutral (pH 7). Non-associated free siRNA was removed by 4 centrifugation steps on Amicons with 100 kDa cut-off.

A further data set deals with TfR1 (Homo sapiens, UniProt P02786). As to the kind of experiment: Surface plasmon resonance binding of ferritin to immobilized his-tagged TFRC receptor. On the procedure:
FIG. 2: Sensorgrams corresponding to the interaction between the immobilized his-tagged TFRC receptor and human ferritin. Panel A: mutant Q11E, panel B: wild type. X-axis: time (s). The same amount of receptor was trapped onto the chip surface (see methods section for details). Five different analyte concentrations (0.0625, 0.125, 0.250, 0.5 and 1 mg/ml) were used. For all analyte concentrations measured, the amount of ferritin bound is higher for the Q11E mutant than for wild-type ferritin.
Binding of wild type and Q11E mutant ferritin to TfR1 was analysed by surface plasmon resonance.
(SPR reads the build-up and loss of mass on a sensor chip optically.)

Entries after “also recorded” stand apart in the source; their conditions may differ.

TfR1, sequence (P02786 whole entry, species assumed): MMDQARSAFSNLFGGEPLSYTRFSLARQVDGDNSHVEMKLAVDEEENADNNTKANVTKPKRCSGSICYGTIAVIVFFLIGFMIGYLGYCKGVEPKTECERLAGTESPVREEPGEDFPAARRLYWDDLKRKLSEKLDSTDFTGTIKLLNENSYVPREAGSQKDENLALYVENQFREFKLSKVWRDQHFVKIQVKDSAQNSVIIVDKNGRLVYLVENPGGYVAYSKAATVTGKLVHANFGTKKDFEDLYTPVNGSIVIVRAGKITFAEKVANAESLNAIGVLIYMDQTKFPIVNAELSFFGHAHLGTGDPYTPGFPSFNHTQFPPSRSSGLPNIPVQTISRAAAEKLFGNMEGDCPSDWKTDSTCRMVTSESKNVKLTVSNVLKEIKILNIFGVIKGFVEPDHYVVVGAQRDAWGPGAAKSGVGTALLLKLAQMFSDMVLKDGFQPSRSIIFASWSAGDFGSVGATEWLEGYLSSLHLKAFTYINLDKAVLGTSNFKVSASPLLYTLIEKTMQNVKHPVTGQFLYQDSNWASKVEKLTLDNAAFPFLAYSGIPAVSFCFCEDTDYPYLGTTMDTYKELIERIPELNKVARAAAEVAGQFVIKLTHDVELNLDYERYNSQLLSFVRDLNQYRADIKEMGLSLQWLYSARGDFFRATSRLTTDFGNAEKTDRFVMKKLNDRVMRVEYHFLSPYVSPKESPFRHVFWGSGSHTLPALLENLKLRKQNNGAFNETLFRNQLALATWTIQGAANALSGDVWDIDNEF

“Q11E-Q15E: human H ferritin mutant Q11E Q15E (TRBD SEQ ID NO. 12); in examples 3-8 also K54E, K72E, K87Q, K144E, C91S, C103S (MTTASTSQVRENYHEDSEAA; listed as Homo sapiens)”: the “stability of cages after storage” value in data set [1] is “still present as 24-mers (homogeneous cages) after storage”. The “forms on native gel (24-mers versus aggregates)” value in data set [2] is on record as “present as 24-mers (homogeneous cages)”. For the same substance, the “number of viable cells after co-culture” value in data set [3] is recorded as “lowest”.
Consider “Q11E: human H ferritin mutant Q11E (TRBD SEQ ID NO. 05); in examples 3-8 also K54E, K72E, K87Q, K144E, C91S, C103S, C131S (MTTASTSQVRENYHQDSEAA; listed as Homo sapiens)”, for which, in data set [1], the “stability of cages after storage” value is “still present as 24-mers (homogeneous cages) after storage; also recorded: reduces the presence of aggregates and allows the storage of ferritin cages with doxorubicin in the freezer”. Further, the “association with siRNA” value with siRNA (incubated in pH 2.4 and 3.2) is “not”. Further, the “association with siRNA” value in the data set with siRNA (incubated in pH range 4.4 to 6.8) is given as “associated with siRNA”. Moreover, the “forms on native gel (24-mers versus aggregates)” value in data set [2] was “present as 24-mers (homogeneous cages)”. In the data set with TfR1, the “binding affinity to the CD71 receptor relative to wild type” value is given as “at least fourfold” and the “rate of release from its complex with CD71 receptor” value is recorded as “slow rate of release”. For the same substance, in the data set with TfR1 (global fit, simple 1:1 binding mode, versus wild type), the KD entry is reported as “lower KD value”. Further, the “amount of ferritin bound” value in the data set with TfR1 (versus wild-type ferritin, analyte 0.0625-1 mg/ml) was “higher”.
